Measurements as given in the RNAGym collection of RNA variant scans (doi:10.1073/pnas.2313332121).
Fewer inactive variants are shown than the library holds.

B1: TPR 5TU (parent)
chain: GGAUCUUCUCGAUCUAACAAAAAAGACAAAUCUGCCACAAAGCUUGAGAGCAUCUUCGGAUGCAGAGGCGGCAGCCUUCGGUGGCGCGAUAGCGCCAACGUUCUCAACUAUGACACGCAAAACGCGUGCUCCGUUGAAUGGAGUUUAUCAUG

Variants of: B1
Assay: polymerase ribozyme fitness, log enrichment relative to wild type (log ratio); higher = more active; in vitro selection for triplet polymerase activity
Procedure, shortened: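 Mutant libraries were PCR-built and transcribed for each subunit of a heterodimeric triplet polymerase ribozyme and selected for one round in triplicate at −7 °C, frozen, before gel excision of extended constructs and streptavidin-bead capture. Input and output libraries were Illumina-sequenced, keeping genotypes with ≥10 input reads and ≥1 read per output. Fitness is a logarithmic ratio of genotype to wild-type enrichment, in base 2, using inverse-variance-weighted replicate averages.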

Variant	polymerase ribozyme fitness (log ratio)
GGAUCUUCUCGAUCUAACAAAAAAGACAAAUCUGCCACAAAGCUUGAGAGCAUCAUCGGAUGCAGAGGCGACAGCCUUCGCUGGCGCGAUAGCGGCAACGUUCUCAACUAUGACACGCAAAACGUGUGCUCCGUUGAAUGGAGUUUAUCAUG	≤ -4.2
GGAUCUUCUCGAUCUAACAAAAAAGACAAAUCUGCCACAAAGCUUGAGAGCAUCAUCGGAUGCAGAGGCGGCAGCCUUCGGUGGCGCGAUAGCGCCAACCUUCUCAACUAUGACACGCAAAACGCUUCCUCCGUUGAAUGGAGUUUAUCAUG	≤ -4.2
GGAUCUUCUCGAUCUAACAAAAAAGACAAAUCUGCCACAAAGCUUGAGAGCAUCAUCGGAUGCAGAGGCGGCAGCCUUCGGUGACGCGAUAGCGCCAACGUUCUCAACUAUGACACGCAAAACGCGUGCUCCGUUGAAUGGAAUUUAUCAUG	-0.776
GGAUCUUCUCGAUCUAACAAAAAAGACAAAUCUGCCACAAAGCUUGAGAGCAUCAUCGGAUGCAGAGGCGGCAGCCUUCGGUGGCGCGAUAACGCCAACGUUCUCAACUAUGACACGCAAAACGCGUGCUCCGUUGAAUGGAGUUUAUCAUG	-2.69
GGAUCUUCUCGAUCUAACAAAAAAGACAAAUCUGCCACAAAGCUUGAGAGCAUCAUCGCAUGCAGAGGCGGCAGCCUUCGGUGGCGCGAUAGCGCCAACGUUUGCAACUAUGACACGCAAAACGCGUGCUCCGUUGAAUGGAGUUUAUCAUG	-3.29
GGAUCUUCUCGAUCUAACAAAAAAGACAAAUCUGCCACAAAGCUUGAGAGCAUCAUCGGAUGCAGACGCGGCAGCCUUCGGUGGAUCGAUAGCGCCAACGUUCUCAACUAUGACACGCAAAACUCGUGCUCCGUUGAAUGGAGUUUAUCAUG	≤ -4.2
GGAUCUUCUCGAUCUAACAAAAAAGACAAAUCUGCCACAAAGCUUGAGAGCAUCAUCGGAUGCAGAGGCGGCAGCCUUCGGUGGCGCGAUAGCGCUAACGUUCUCAACUAUGACACGCAAAACGCGCGCUCCGCUGAAUGGAGUUUAUCAUG	-3.3
GGAUCUUCUCGAUCUAACAAAAAAGACAAAUCUGCCACAAAGCUUGAGAGCAUCAUCGGAUGCAGAGGCCGCAGCCUUCGGUGGCGCGAUAUCGCCAACGUUCUCAACUAUGACACGCUAAACGCGUGCUCCGUUGAAUGGAGUUUAUCAUG	-3.25
GGAUCUUCUCGAUCUAACAAAAAAGACAAAUCUGCCACAAAGCUUGAGAGCAUCAACGGAUGCAGAGGUGGCAGCCUUUGGUGGCACGAUUGCGCCAACGUUCUCCACUAUGACACGCAAGACGUGUGCUCCGUUGAAUGGCGUUUAUCAUG	≤ -4.2
GGAUCUUCUCGAUCUAACAAAAAAGACAAAUCUGCCACAAAGCUUGAGAGCAUCAACGGAUGCAGAGGCGGCAGCCUUCGGUGGCGCGAUAGCGCCUACGUUCUCAACUAUGACACGCAAAACGCGUGCUCCGUUGAAUGGAGUUUAUCAUG	-0.565
GGAUCUUCUCGAUCUAACAAAAAAGACAAAUCUGCCACAAAGCUUGAGAGCAUCAUCGGAUGCAGAGGCGGCAGCCUUCGGUGGCGCGAUAGCGCCAACGUUCUCAACUAUGACACGCAAAACGCAUGCUCCGUUGAAUGGAGUUUAUCAUG	-1.02
GGAUCUUCUCGAUCUAACAAAAAAGACAAAUCUGCCACAAAGCUUGAGAGCAUCAUCGGAUGCAGAGGCGGCAGCCUUCGGUGGCGCGAUAGCGCCAACGUUCUCAACUAUGACACGCAAAACGCCUGCUCCGUUGAAUGGAGUUUAUCAUG	1.42
GGAUCUUCUCGAUCUAACAAAAAAGACAAAUCUGCCACAAAGCUUGAGAGCAUCAUCGGAUGCAGAGGCGGCAGCCUUCGGUGGCGCGAUAGCGUCAACGUUCUAAAGUAUGACACGCAAAACGCGUGCUCCGUUGAAUGGAGUUUAUCAUG	≤ -4.2
GGAUCUUCUCGAUCUAACAAAAAAGACAAAUCUGCCACAAAGCUUGAGAGCAUCAUCGGAUGCAGAGGCGGCAGCCUUCGCUGUCGCGAUAGCGCCAACGUUCUCAACUAUGACAAGCAAAACGCGUGCUCCGUUGAAUGGAGUUUAUCAUG	-2.11
GGAUCUUCUCGAUCUAACAAAAAAGACAAAUCUGCCACAAAGCUUGAGAGCAUCAUCGGAUGCAGAGGCGGCAGCCUUCGGUGGCGCGAUAGCGUCAACGUUCUCAACUAUGACACGCAAAACGCGUGCUCCGUUGAAUGGAGUUUAUCAUG	-0.137
GGAUCUUCUCGAUCUAACAAAAAAGACAAAUCUGCCACAAAGCUUGAGAGCAUCAUCGGAUGCAGAGGCGGCAGCCUUCGGUGGCGCGAUAGCGCAAACGUUCUCAACUAUGACACGCAAAACGCGUGCUCCGUUGAAUGGAGUUUAUCAUG	-1.21
GGAUCUUCUCGAUCUAACAAAAAAGACAAAUCUGCCACAAAGCUUGAGAGCAUCAUCGGAUGCAGAGGCGGCAGCCUUCGGUGGCGCGAUAGCGCGAACGUUCUCAACUAUGACACGCAAAACGCGUGCUCCGUUGAAUGGAGUUUAUCAUG	-1.04
GGAUCUUCUCGAUCUAACAAAAAAGACAAAUCUGCCACAAAGCUUGAGAGCAUCAUCGGAUGCAGAGGCGGCAGCCUUCGGUGUCGCGAUAGCGCCAACGUUCUCAACUAUGCCACGCAAAACGCGUGCUCCGUUGAAUGGAGUUUAUCAUG	-3.62
GGAUCUUCUCGAUCUAACAAAAAAGACAAAUCUGCCACAAAGCUUGAGAGCAUCAUCGGAUGCAGAGGCGGCAGCCUUCGGUGGCGCUAUAGCGCCAACGUUCUCAACUAUGACACGCAAAACGCGUGCUCCGUUGAAUGGAGUUUAUCAUG	-4.14
